According to patent US20240327505A1 (published 2024):
Changes are numbered by the printed parent chain.

Assays:
[1] = target: T1, SARS-CoV-2 spike S2 protein (SARS-CoV-2, UniProt P0DTC2 686-1213); test: BLI, as in Example 4
T1 construct: domain: S2

[2] = target: SARS-CoV-2 spike protein on fully infectious (replication-competent) SARS-CoV-2 virus (SARS-CoV-2, UniProt P0DTC2 14-1273); test: cell-based or functional assay
[3] = target: SARS-CoV-1 spike protein on pseudovirus (SARS-CoV-1, UniProt P59594 14-1255); test: cell-based or functional assay
[4] = target: SARS-CoV-2 Wuhan-1 full-length Spike protein on pseudovirus (SARS-CoV-2, UniProt P0DTC2 14-1273); test: cell-based or functional assay
[5] = target: SARS-CoV-2 Nucleocapsid (N) protein (SARS-CoV-2, UniProt P0DTC9 1-419)
[6] = target: SARS-CoV-2 spike S2 protein (SARS-CoV-2, UniProt P0DTC2 686-1213)
[7] = target: SARS-CoV-2 Nucleocapsid (N) protein (SARS-CoV-2, UniProt P0DTC9 1-419); remark: listed apart in the source
[8] = target: SARS-CoV-2 S2 protein (SARS-CoV-2, UniProt P0DTC2 686-1213)
[9] = target: SARS-CoV-2 Spike (S) trimer (SARS-CoV-2, UniProt P0DTC2 16-1213); test: ELISA, S trimer coated, antibody at 1:50 dilution
[10] = target: SARS-CoV-2 Envelope (E) protein (SARS-CoV-2, UniProt P0DTC4 1-75); test: ELISA, Envelope
[11] = target: SARS-CoV-2 Spike (S) trimer (SARS-CoV-2, UniProt P0DTC2 16-1213); test: ELISA on coated S trimer, 1:50

B1: AB-009620 (antibody, V domains shown)
VH: QITLKESGPTLVKPTQTLTLTCTFSGFSLSTSGVGVGWIRQPPGKALEWLALIYWDDDKRYSPSLKSRLTITKDTSKNQVVLTMTNMDPVDTATYYCAHHEVATVFDYWGQGTLVTVSS
VL: QSALTQPASVSGSPGQSITISCTGTSSDVGAYNYVSWYQQHPGKAPKLMIYEVSNRPSGVSNRFSGSKSGNTASLTISGLQAEDEADYYCSSYTSSSTVFGGGTKLTVL
[1]
  binding result: no binding
[2]
  Neutralization (Infectious virus; (µg/mL)): 13.3 µg/mL
[3]
  Pseudovirus Neturalization: > 50 µg/mL
[4]
  Pseudovirus Neturalization: 1.04 µg/mL

B2: AB-009610 (antibody, V domains shown)
VH: QVQLVQSGAEVKKPGSSVKVSCKASGGTFSNYAISWVRQAPGQGLEWMGRIIPILGIANYAQKFQGRVTITADKSTSTAYMELSSLRSEDTAVYYCATTPYYYDSSGYYLDYWGQGTLVTVSS
VL: not shown
[1]
  binding result: no binding
[2]
  Neutralization (Infectious virus; (µg/mL)): 6.25 µg/mL
[3]
  Pseudovirus Neturalization: > 50 µg/mL
[4]
  Pseudovirus Neturalization: 6.77 µg/mL

B3: AB-009119 (antibody, V domains shown)
VH: EVQLVESGGGLVQPGGSLKLSCAASGFTFSGSAMHWVRQASGKGLEWVGRIRSKANSYATAYAASVKGRFTISRDDSKNTAYLQMNSLKTEDTAVYYCTRHGTTVNWGQGTLVTVSS
VL: not shown
[5]
  Kd: 7.35 nM
  koff: 0.000647 s⁻¹
  kon: 88000 M⁻¹ s⁻¹
[6]
  Kd: 0.0583 nM
  koff: 2.56e-07 s⁻¹
  kon: 4390 M⁻¹ s⁻¹

B4: AB-009112 (antibody, V domains shown)
VH: QVQLVESGGGVVQPGRSLRLSCAASGFTFSSYAMHWVRQAPGKGLEWVAVISYDGSNKYYADSVKGRFTISRDNSKNTLYLQMNSLRAEDTAVYYCASSLVGATKSYYYYYYGMDVWGQGTTVTVSS
VL: SYELTQPLSVSVALGQTARITCGGNNIGSKNVHWYQQKPGQAPVLVIYRDSNRPSGIPERFSGSNSGNTATLTISRAQAGDEADYYCQVWDSSSVVFGGGTKLTVL
[5]
  Kd: 32.7 nM

B5: AB-009213 (antibody, V domains shown)
VH: EVQLVESGGGLVKPGGSLRLSCAASGFTFSSYSMNWVRQAPGKGLEWVSSISSSSSYIYYADSVKGRFTISRDNAKNSLYLQMNSLRAEDTAVYYCARDKLREDGDYDDAFDIWGQGTMVTVSS
VL: not shown
[5]
  Kd: 10 nM
  koff: 0.00112 s⁻¹
  kon: 112000 M⁻¹ s⁻¹

B6: AB-009791 (antibody, V domains shown)
VH: QLQLQESGPGLVKPSETLSLTCTVSGGSISSSSYYWGWIRQPPGKGLEWIGSIYYSGSTYYNPSLKSRVTISVDTSKNQFSLKLSSVTAADTAVYYCAREPRRVKQWLVVPYYYMDVWGKGTTVTVSS
VL: not shown
[7]
  Kd: 4.61 nM
  koff: 8.35e-05 s⁻¹
  kon: 18100 M⁻¹ s⁻¹

B7: AB-009799 (antibody, V domains shown)
VH: QVQLVQSGAEVKKPGASVKVSCKASGYTFTSYDINWVRQATGQGLEWMGWMNPNSGNTGYAQKFQGRVTMTRNTSISTAYMELSSLRSEDTAVYYCARGRLRITIFNRVYYFDYWGQGTLVTVSS
VL: not shown
[7]
  Kd: 19.6 nM
  koff: 0.000265 s⁻¹
  kon: 13600 M⁻¹ s⁻¹

B8: AB-009627 (antibody, V domains shown)
VH: QVQLQQWGAGLLKPSETLSLTCAVYGGSFSGYYWSWIRQPPGKGLEWIGEINHSGSTNYNPSLKSRVTISVDTSKNQFSLKLSSVTAADTAVFYCARGGYSSSWYGEKYWFDPWGQGTLVTVSS
VL: QSALTQPRSVSGSPGQSVTISCTGTSSDVGGYNYVSWYQQHPGKAPKLMIYDVSKRPSGVPDRFSGSKSGNTASLTISGLQAEDEADYYCCSYAGSPYVFGTGTKVTVL
[8]
  Kd: 0.246 nM
  koff: 2.85e-07 s⁻¹
  kon: 1160 M⁻¹ s⁻¹

B9: AB-009613 (antibody, V domains shown)
VH: EVQLVESGGGLIQPGGSLRLSCAASGFTVSSNYMSWVRQAPGKGLEWVSVIYSGGSTYYADSVKGRFTISRDNSKNTLYLQMNSLRAEDTAVYYCARDYGDFYFDYWGQGTLVTVSS
VL: not shown
[1]
  binding result: no binding
[2]
  Neutralization (Infectious virus; (µg/mL)): 3.4 µg/mL
[3]
  Pseudovirus Neturalization: > 50 µg/mL
[4]
  Pseudovirus Neturalization: 1.53 µg/mL

B10: AB-009271 (antibody, V domains shown)
VH: B9 VH with T28I
VL: EIVMTQSPATLSVSPGERATLSCRASQSVSSNLAWYQQKPGQAPRLLIYGASTRATGIPARFSGSGSGTEFTLTISSLQSEDFAVYYCQQYYNWPRTFGQGTKVEIK
[9]
  Optical Density (OD; 450 nm): 2.94 OD 450 nm

B11: AB-009271 (antibody, V domains shown)
VH: B9 VH with T28I
VL: B10 VL
[1]
  binding result: no binding
[2]
  Neutralization (Infectious virus; (µg/mL)): 0.181 µg/mL
[3]
  Pseudovirus Neturalization: > 50 µg/mL
[4]
  Pseudovirus Neturalization: 0.058 µg/mL

B12: AB-009734 (antibody, V domains shown)
VH: QVHLVQSGAEVKTPGASVRVSCKASGYTFTSHYMHWVRQAPGQGLEWMGLINPSGSGTAYPQHFQGRVTMTRDTSTTTDYMDLSSLRSEDTAMYFCARMERSGAFDLWGQGTMVTVSS
VL: EIVLTQSPGTLSLSPGERATLSCRASQTISSRYLAWYYQKPGQAPRLLIQGSSIRATGIPDRFSGSGSGTDFTLTISRLEPEDFAVYYCQHYGSSPPMYTFGQGTKLEIK
[8]
  Kd: 12.4 nM
  koff: 0.000103 s⁻¹
  kon: 8280 M⁻¹ s⁻¹
[7]
  Kd: 22.2 nM
  koff: 0.000979 s⁻¹
  kon: 44000 M⁻¹ s⁻¹

B13: AB-009357 (antibody, V domains shown)
VH: QLQLQESGPGLVKPSETLSLTCTVSGGSISSSSYYWGWIRQPPGKGLEWIGSIYYSGSTYYNPSLKSRVTISVDTSKNQFSLKLSSVTAADTAVYYCARHPLSSITIFGVVKREYYFDYWGQGTLVTVSS
VL: DIQMTQSPSSVSASVGDRVTITCRASQGISSWLAWYQQKPGKAPKLLIYAASSLQSGVPSRFSGSGSGTDFTLTISSLQPEDFATYYCQQANSFPLLFGGGTKVEIK
[10]
  OD 450 nm: 0.221 OD
[11]
  OD 450 nm: 2.77 OD

B14: AB-009335 (antibody, V domains shown)
VH: QVQLQESGPGLVKPSETLSLTCTVSGGSISSHYWSWIRQPPGKGLEWIGYIYYSGSTNYNPSLKSRVTISVDTSKNQFSLKLSSVTAADTAVYYCARVRREWLAAYFYYGMDVWGQGTTVTVSS
VL: B13 VL with V11L, S31N, W32Y, A43V, S53T, F83V, Q90K, A91Y, F94A, L97T
[10]
  OD 450 nm: 0.4 OD
[11]
  OD 450 nm: 1.03 OD

B15: AB-009270 (antibody, V domains shown)
VH: QMQLVQSGPEVKKPGTSVKVSCKASGFTFTSSAMQWVRQARGQRLEWIGWIVVGSGNTNYAQKFQERVTITRDMSTSTAYMELSSLRSEDTAVYYCAVNYCSSTSCYDAFDIWGQGTMVTVSS
VL: not shown
[1]
  binding result: no binding
[2]
  Neutralization (Infectious virus; (µg/mL)): 1.37 µg/mL
[3]
  Pseudovirus Neturalization: > 50 µg/mL
[4]
  Pseudovirus Neturalization: 0.065 µg/mL

B16: AB-010021 (antibody, V domains shown)
VH: B15 VH with M34V, V98A, N99V, S103G, T104G, Y107L
VL: not shown
notes: also called AB-0010021
[1]
  binding result: no binding
[3]
  Pseudovirus Neturalization: > 50 µg/mL
[4]
  Pseudovirus Neturalization: 1.56 µg/mL

B17: AB-010020 (antibody, V domains shown)
VH: B15 VH with M34V, V98A, N99P, Y100A, A109G
VL: not shown
[1]
  binding result: no binding
[3]
  Pseudovirus Neturalization: > 50 µg/mL
[4]
  Pseudovirus Neturalization: 0.004 µg/mL

B18: AB-009190 (antibody, V domains shown)
VH: QVQLVESGGGVVQPGRSLRLSCAASGFTFSSYAMHWVRQAPGKGLEWVAVISYDGSNKYYADSVKGRFTISRDNSKNTLYLQMNSLRAEDTAVYYCARLNGDAYYYYGMDVWGQGTTVTVSS
VL: not shown
[5]
  Kd: 54.1 nM
  koff: 0.000947 s⁻¹
  kon: 17500 M⁻¹ s⁻¹
[10]
  OD 450 nm: 0.469 OD

B19: AB-009325 (antibody, V domains shown)
VH: QVQLVESGGGVVQPGRSLRLSCAASGFTFNNYGMHWVRQAPGKGLEWVALISYEGSLKYYGDSVRGRFTVSRDNSRNTLYLQMNSLRVDDTAVYYCAKAGGIFAIHYYGMNVWGQGTTVTVSS
VL: QSVLTQPPSVSAAPGQKVTISCSGSSSNIGKNYVSWYRQFPGTAPKLLIYDNNKRPSGIPDRFSGSKSDTSATLGITGLQTGDEADYYCVTWDSSLSAGVFGGGTKLTVL
[6]
  Kd: 0.0467 nM
  koff: 2.77e-07 s⁻¹
  kon: 5930 M⁻¹ s⁻¹
[10]
  OD 450 nm: 0.32 OD
[11]
  OD 450 nm: 1.39 OD

B20: AB-009095 (antibody, V domains shown)
VH: EVQLVQSGAEVKKPGESLIISCTGSGYTFATFWITWVRQMPGKGLEWLGRIDPSDSYTNYNPSFQGHVTVSVDRSINTAYLELTSLKASDTAIYYCARQMYNTGWPIPNYSDYWGQGTLVTVSS
VL: QSALTQPPSASGSPGQSVTISCAGASTDVGVYNFVSWYQQHPGKAPKLIIFDVNKRPSGVPDRFSGSKSGNTASLTVSGLQAEDEADYYCSSYEVGNNFVFGTGTKVTVL
[5]
  Kd: 0.833 nM
  koff: 5.93e-05 s⁻¹
  kon: 71100 M⁻¹ s⁻¹
[6]
  Kd: 0.176 nM
  koff: 2.15e-07 s⁻¹
  kon: 1220 M⁻¹ s⁻¹

B21: AB-009778 (antibody, V domains shown)
VH: QLQLQESGPGLVKPSETLSLTCTVSGGSISSSSYYWGWIRQPPGKGLEWIGSIYYSGSTYYNPSLKSRVTISVDTSKNQFSLKLSSVTAADTAVYYCARQFRRWLQLGPSYFDYWGQGTLVTVSS
VL: not shown
[7]
  Kd: 48.5 nM
  koff: 0.000866 s⁻¹
  kon: 17800 M⁻¹ s⁻¹
